Consider 1 molecule from PMC7510528 (Cell, 2020).

This assay concerns the target T1, RBD-Fc (RBD-SD1 part of SARS-CoV2-S1, amino acids 319-591, fused to the constant region of rabbit IgG1 heavy … (SARS-CoV-2 (reference sequence, …, UniProt P0DTC2))).
T1 construct: source: HEK293T, cell culture supernatant, immobilized onto plates via anti-rabbit IgG
The experiment in a line: ELISA. To be noted: partners not purified. (In general: In an ELISA, binding on a coated surface is turned into a signal by an enzyme label.)

B1: HK CV07-202 (antibody, V domains shown)
VH: EVQLVESGGGLIQPGGSLRLSCAASGFTVSSNYMSWVRQAPGKGLEWISVIYSGGSTFYADSVKGRFTISRDNSKNTLYLQMNSLRAEDTAVYYCARDLYYYGMDVWGQGTTVTVSS
VL: DIQLTQSPSFLSASVGDRVTITCRASQGISSYLAWYQQKPGKAPKLLIYAASTLQSGVPSRFSGSGSGTEFTLTISSLQPEDFATYYCQQLNNYSVTFGGGTKVEIK
With B1, the binding result is recorded as “binds”.
